In publication PMC7580981 (2020):

Experiments:
[1] = biological target: IBV polymerase trimeric complex (Pol3): PA-His, PB1, PB2 (influenza B virus); assay: SPR
[2] = biological target: two polymerase subunits (PA and PB1) of IBV polymerase (Pol2): PA-His, PB1 (influenza B virus); assay: SPR

Binder | Kd [1] [mM] | Kd [2] [mM]
human ANP32A C terminal truncated (huANP32A_165T), purified (GST cleaved) (domain or fragment) MEMGRRIHLELRNRTPSDVKELVLDNSRSNEGKLEGLTDEFEELEFLSTINVGLTSIANLPKLNKLKKLELSDNRVSGGLEVLAEKCPNLTHLNLSGNKIKDLSTIEPLKKLENLKSLDLFNCEVTNLNDYRENVFKLLPQLTYLDGYDRDDKEAPDSDAEGYVE | > 1 | –
human ANP32A, purified (GST cleaved) (natural protein) MEMGRRIHLELRNRTPSDVKELVLDNSRSNEGKLEGLTDEFEELEFLSTINVGLTSIANLPKLNKLKKLELSDNRVSGGLEVLAEKCPNLTHLNLSGNKIKDLSTIEPLKKLENLKSLDLFNCEVTNLNDYRENVFKLLPQLTYLDGYDRDDKEAPDSDAEGYVEGLDDEEEDEDEEEYDEDAQVVEDEEDEDEEEEGEEEDVSGEEEEDEEGYNDGEVDDEEDEEELGEEERGQKRKREPEDEGEDDD | – | > 1
